Results on four molecules are retold here after patent US20210214430A1 (Regeneron, published 2021).

To fix the notation:
B1: mAb3 (a mouse anti-VEGFR1 mAb mouse IgG1) (antibody)
heavy: EVQLVESGGDLVKPGGSLKLSCAASGFTFSSSGMSWVRQTPDKRLEWVATITSGGSYTYYPDSVKGRFTISRDNAKNTLYLQMSSLKSEDTAMFYCARLGNYGGYYAMDYWGQGTSVTVSSAKTTPPSVYPLAPGSAAQTNSMVTLGCLVKGYFPEPVTVTWNSGSLSSGVHTFPAVLQSDLYTLSSSVTVPSSTWPSETVTCNVAHPASSTKVDKKIVPRDCGCKPCICTVPEVSSVFIFPPKPKDVLTITLTPKVTCVVVDISKDDPEVQFSWFVDDVEVHTAQTQPREEQFNSTFRSVSELPIMHQDWLNGKEFKCRVNSAAFPAPIEKTISKTKGRPKAPQVYTIPPPKEQMAKDKVSLTCMITDFFPEDITVEWQWNGQPAENYKNTQPIMDTDGSYFVYSKLNVQKSNWEAGNTFTCSVLHEGLHNHHTEKSLSHSPGK
light: DIQMTQSPSSLSASLGGKVTITCTTSQDSNNYIAWYQHKPGKGPRLLIHYASTLQPGIPSRFSGSGSGRDYSFSISNLEPEDIATYFCLQYDYLWTFGGGTKLELKRADAAPTVSIFPPSSEQLTSGGASVVCFLNNFYPKDINVKWKIDGSERQNGVLNSWTDQDSKDSTYSMSSTLTLTKDEYERHNSYTCEATHKTSTSPIVKSFNRGEC
notes: also called column 4
B2: mAb1 (a mouse anti-VEGFR1 mAb human IgG1) (antibody)
heavy: not shown
light: DIQMTQSPSSLSASLGGKVTITCTTSQDSNNYIAWYQHKPGKGPRLLIHYASTLQPGIPSRFSGSGSGRDYSFSISNLEPEDIATYFCLQYDYLWTFGGGTKLELKRTVAAPSVFIFPPSDEQLKSGTASVVCLLNNFYPREAKVQWKVDNALQSGNSQESVTEQDSKDSTYSLSSTLTLSKADYEKHKVYACEVTHQGLSSPVTKSFNRGEC
notes: Also amine-coupled to the Biacore chip to capture MT5
B3: recombinant VEGF MiniTrap (dimer) MT5 (receptor)
chain: SDTGRPFVEMYSEIPEIIHMTEGRELVIPCRVTSPNITVTLKKFPLDTLIPDGKRIIWDSRKGFIISNATYKEIGLLTCEATVNGHLYKTNYLTHRQTNTIIDVVLSPSHGIELSVGEKLVLNCTARTELNVGIDFNWEYPSSKHQHKKLVNRDLKTQSGSEMKKFLSTLTIDGVTRSDQGLYTCAASSGLMTKKNSTFVRVHEKDKTHTCPPCPAPELLG
notes: also called VEGF MiniTrap 5
B4: mAb2 (a mouse anti-VEGFR1 mAb human IgG1) (antibody, V domains shown)
VH: EVQLVESGGDLVKPGGSLKLSCAASGFTFSDSGMSWVRQTPDKRLEWVATISSGGGYTYYSDSVEGRFTISRDNANNTLFLQMSSLKSEDTAMFYCARLGNYGGYYGMDYWGQGTSVTVSS
VL: DIQMTQSPSSLSASLGGKVTITCKTSQDSNKYIAWYQHKPGKGPRLLIHYTSTLQPGIPSRFSGSGSGRDYSFSISNLEPEDIATYYCLQYDNLWTFGGGTKLEIKR
notes: also called column 3

In assay [1] the target is B3. Nature of the assay: affinity chromatography, antibody coupled to HiTrap NHS-activated column (column 4).
Assay [2] has as its target B3. The experiment in a line: affinity chromatography on immobilized mAb1, low-pH eluate on non-reducing SDS-PAGE. The method, then:
(§1) The column was activated by washing the columns with 6 column volumes (CV) of 1 mM ice-cold hydrochloric acid at a flow rate not exceeding 1 mL/min. […] The columns were washed with 18 column volumes of 0.5 M sodium acetate, 0.5 M NaCl, pH 4.0 and the open sites were blocked with 18 column volumes of 0.5 M Tris-HCl, 0.5 M NaCl pH 8.3 (the wash was carried out in the following order: 6 column volumes of 0.5 M Tris-HCl, 0.5 M NaCl, pH 8.3; 6 column volumes of 0.5 M sodium acetate (sodium acetate: JT Baker, Cat #3470-01), 0.5 M NaCl, pH 4.0; 6 column volumes of 0.5 M Tris, pH 8.3; incubate the column for 30 minutes at room temperature; 6 column volumes of 0.5 M sodium acetate buffer, 0.5 M NaCl pH 4.0; 6 column volumes of 0.5 M Tris-HCl, 0.5 NaCl, pH 8.3 and 6 column volumes of 0.5 M sodium acetate buffer, 0.5 M NaCl pH 4.0). The columns were stored in DPBS, pH 7.5. The five columns evaluated are designated as column 1 (comprising VEGF₁₆₅), column 2 (comprising mAb1), column 3 (comprising mAb2), column 4 (comprising mAb3) and column 5 (comprising mAb4).
(§2) SDS-PAGE analysis of the eluted fractions from the three columns (column 1, column 2, and column 3) was performed. […]

The target in assay [3] is T1, VEGF165 (human, UniProt P15692 207-395).
T1 construct: also called hVEGF165
T1 sequence (P15692 other isoform, or with tags, fused parts or gaps limits assumed): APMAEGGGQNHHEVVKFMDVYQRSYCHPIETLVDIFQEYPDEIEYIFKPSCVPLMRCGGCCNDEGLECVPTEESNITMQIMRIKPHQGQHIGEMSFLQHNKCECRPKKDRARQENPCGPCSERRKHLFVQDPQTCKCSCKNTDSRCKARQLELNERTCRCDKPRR
Nature of the assay: SPR, Biacore T200, 25 C; MT5 captured on amine-coupled mAb1, VEGF165 injected at 0.03-2 nM; 1:1 Langmuir fit. The following applies: loading solution before affinity chromatography. The protocol: All binding studies were performed in 10 mM HEPES, 150 mM NaCl, 3 mM EDTA, and 0.05% v/v Surfactant Tween-20, pH 7.4 (HBS-ET) running buffer at 25° C. The Biacore sensor surface was first derivitized by amine coupling with a mAb 1 to capture MT5.
Briefly, the eluates from the columns and loading solution were diluted into an HBS-EP (Biacore) buffer and injected across the immobilized protein matrices at a capture level of ˜70 RUs. The VEGF₁₆₅ was then injected at a flow rate of 50 μL/min. Equivalent concentration of analyte was simultaneously injected over an untreated reference surface to serve as blank sensorgrams for subtraction of bulk refractive index background. The sensor chip surface was regenerated between cycles with two 5-min injections of 10 mM Glycine, at 25 μL/min. The resultant experimental binding sensorgrams were then evaluated using the BIA evaluation 4.0.1 software to determine kinetic rate parameters. Datasets for each sample were fit to the 1:1 Langmuir model. For these studies, binding and dissociation data were analyzed under the Global Fit Analysis protocol while selecting fit locally for maximum analyte binding capacity (RU) or Rmax attribute. In this case, the software calculated a single dissociation constant (kd), association constant (ka), and affinity constant (Kd). The equilibrium dissociation constant is KD=kd/ka. […] The dissociative half-lives (t½) were calculated from the kinetic rate constants as: t_{1/2}=ln(2)/60*[…]. Binding kinetic parameters for MT5 to VEGF₁₆₅ obtained from before and after the affinity chromatography production at 25° C. are shown in Table 7-6.
In general terms: SPR reads the build-up and loss of mass on a sensor chip optically.

Assay [4] deals with B3. The experiment in a line: affinity chromatography on immobilized mAb2, low-pH eluate on non-reducing SDS-PAGE. The method, then: as §1, §2

Take B1: the binding result in assay [1] is “binds”. B2: the binding result in assay [2] is reported as “binds”. For the molecule B3, in assay [3], the affinity, expressed as Kd, was 1.84 pM; the koff is 1.74e-05 s⁻¹; the kon worked out at 9.44e+06 M⁻¹ s⁻¹; the “t1/2 (dissociative half-life)” value was 11.1 h. B4: in assay [4], the binding result is listed as “binds”.

Broadly, the Kd is the free concentration of one partner at which half of the binding sites on the other are occupied at equilibrium, for simple one-to-one binding. High values mean lower affinity, low ones higher affinity. What is called koff is a measure of how fast the partners let go of each other. In general, kon refers to the second-order rate constant of association. Low readings indicate slower complex formation, high ones faster complex formation.
